T1: human CD73 protein (ACRO Biosystems, Cat No. CD3-H52H7) (human, UniProt P21589 27-547)
T1 sequence: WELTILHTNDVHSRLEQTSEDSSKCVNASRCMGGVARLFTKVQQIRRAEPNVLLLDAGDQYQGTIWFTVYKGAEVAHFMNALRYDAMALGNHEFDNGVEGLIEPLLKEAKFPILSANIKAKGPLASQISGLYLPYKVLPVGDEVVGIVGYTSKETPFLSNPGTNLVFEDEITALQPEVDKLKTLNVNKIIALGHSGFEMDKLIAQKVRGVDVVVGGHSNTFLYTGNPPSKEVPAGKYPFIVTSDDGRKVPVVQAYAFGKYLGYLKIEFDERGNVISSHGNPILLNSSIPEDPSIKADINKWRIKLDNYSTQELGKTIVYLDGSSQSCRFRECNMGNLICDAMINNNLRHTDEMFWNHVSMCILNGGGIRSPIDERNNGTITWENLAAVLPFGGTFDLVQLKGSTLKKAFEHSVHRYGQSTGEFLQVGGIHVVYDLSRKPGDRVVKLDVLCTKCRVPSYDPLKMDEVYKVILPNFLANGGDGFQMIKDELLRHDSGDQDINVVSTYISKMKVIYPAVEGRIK

T2: human CD73 on the cell surface (human, UniProt P21589 27-549)
T2 sequence: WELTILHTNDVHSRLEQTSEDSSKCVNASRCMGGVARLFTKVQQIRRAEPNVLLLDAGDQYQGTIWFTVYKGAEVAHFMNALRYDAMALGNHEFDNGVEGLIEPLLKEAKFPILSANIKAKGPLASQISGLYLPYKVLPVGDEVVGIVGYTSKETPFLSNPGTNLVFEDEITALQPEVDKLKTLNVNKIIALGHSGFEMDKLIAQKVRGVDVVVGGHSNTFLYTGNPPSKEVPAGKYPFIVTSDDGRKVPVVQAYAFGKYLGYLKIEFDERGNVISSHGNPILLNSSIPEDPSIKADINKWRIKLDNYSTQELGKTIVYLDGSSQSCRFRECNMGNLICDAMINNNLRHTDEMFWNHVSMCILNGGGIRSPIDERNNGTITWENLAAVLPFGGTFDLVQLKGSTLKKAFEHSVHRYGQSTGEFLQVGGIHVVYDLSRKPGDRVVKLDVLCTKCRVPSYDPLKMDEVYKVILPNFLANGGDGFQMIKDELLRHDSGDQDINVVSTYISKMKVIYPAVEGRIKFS

T3: monkey CD73 (Novoprotein, Cat No. C121) (monkey, UniProt A0A2K5V5U7 27-549)
T3 construct: Bought protein; also called monkey CD73 protein
T3 sequence: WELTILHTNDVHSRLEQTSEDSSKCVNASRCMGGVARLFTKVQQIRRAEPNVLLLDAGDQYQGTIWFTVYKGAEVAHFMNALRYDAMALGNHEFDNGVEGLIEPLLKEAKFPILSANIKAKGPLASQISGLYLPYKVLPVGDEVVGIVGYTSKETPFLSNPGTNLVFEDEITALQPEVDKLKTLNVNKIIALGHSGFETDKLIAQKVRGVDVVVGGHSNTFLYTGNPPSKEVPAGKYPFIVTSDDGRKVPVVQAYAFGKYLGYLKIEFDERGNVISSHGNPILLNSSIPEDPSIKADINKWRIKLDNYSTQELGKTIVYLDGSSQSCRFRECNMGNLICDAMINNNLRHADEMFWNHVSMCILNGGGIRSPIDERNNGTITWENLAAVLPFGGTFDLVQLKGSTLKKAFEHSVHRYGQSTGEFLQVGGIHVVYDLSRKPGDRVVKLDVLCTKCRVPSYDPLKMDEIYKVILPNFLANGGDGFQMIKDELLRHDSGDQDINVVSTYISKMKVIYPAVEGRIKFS


Columns and labels:
[1] = molecular target: T1, human CD73 protein (ACRO Biosystems, …); test: cell-based or functional assay
[2] = molecular target: T2, human CD73 on the cell surface; test: cell-based or functional assay
[3] = molecular target: T2, human CD73 on the cell surface; test: cell-based or functional assay; remark: listed apart in the source
[4] = molecular target: T2, human CD73 on the cell surface; test: flow cytometry on CHOK1-huCD73-3F4 cells, PE anti-human Fc
Protocol: All the antigen-binding proteins were diluted to 30 μg/ml with PBS solution containing 1% BSA (1% BSA/PBS), diluted at 3-fold into 11 gradients and then added to a 96-well U-shaped plate at 20 μL/well, and negative control (1% BSA/PBS was added only) was set up simultaneously. The suspension of human CD73-expressing cells (CHOK1-huCD73-3F4, Huabo Biopharm) in the logarithmic growth phase were collected and centrifuged at 1000 rpm for 5 min, and the culture medium was discarded; then the cells were resuspended with 1% BSA/PBS to a viable cell density of 1×10⁶/mL, and then added into the 96-well U-shaped plate already added with anti-CD73 antigen-binding protein at 20 μL (2×10⁴ cells)/well for reaction at room temperature for 30 min. […] After the reaction, the cells in the 96-well U-shaped plate were resuspended with 1% BSA/PBS and centrifuged at 300 g for 3 min and the supernatant was discarded; after washing in this manner 3 times, and the cells were finally resuspended with 1% BSA/PBS at 100 μL/well, and the fluorescence intensity of the PE channel was measured with a flow cytometer (BD, #Canto II).

[5] = molecular target: T1, human CD73 protein (ACRO Biosystems, …); test: SPR (Biacore T200), antibody captured on protein A chip, CD73 as analyte, 1:1 model
Protocol: (§1) The temperatures of the sample chamber and flow path were set at 25° C. The protein A chips separately captured the antigen-binding proteins as ligands, which were immobilized at about 100 RU. […] Ten mM Glycine, pH 1.5, was regenerated for 60 s at a flow rate of 50 μL/min for multiple cycle kinetic detection. The binding rate constant (ka), dissociation rate constant (kd) and dissociation equilibrium rate constant (KD) were fitted using the Fit local mode of a 1:1 binding model.

[6] = molecular target: T3, monkey CD73 (Novoprotein, Cat No. C121); test: as above
Protocol: as §1, with “[…]” for “μL/min”

Row | EC50(µg/mL), inhibition of recombinant CD73 (CellTiter-Glo) [1] | EC50(µg/mL), inhibition of enzyme activity of CD73 on CHOK1-huCD73-3F4 cells [2] | Endocytosis efficiency (%) [3] | EC50 [4] | Kd [5] | koff [5] | kon [5] | Kd [6] | koff [6] | kon [6] | Binder
1 | 0.262 µg/mL | 1.85 µg/mL | 78.8% | 0.347 µg/mL | 1.65 nM | 0.000439 s⁻¹ | 267000 M⁻¹ s⁻¹ | 1.05 nM | 0.000358 s⁻¹ | 349000 M⁻¹ s⁻¹ | 900581 (antibody, human IgG1, V domains shown) VH: EVQLVESGGGLVKPGGSLKLSCAASGFTFSKYAMSWVRQSPEKRLEWVAEISSGGGYINYPDTVTGRFTISRDNAKNTLYLEMSSLRSGDTAMYYCARAIYYYGSSYNYYAMDYWGQGTSVTVSS VL: DIVMTQSHKFMSTSVGDRVSITCKASQDVGTAEAWYQQKPGQSPKLLIYWASTRHTGVPDRFTGSGSGTDFTLTIGNVQSEDLADYFCQQYSSYPLTFGGGTKLEIK
2 | 0.746 µg/mL | – | – | 0.594 µg/mL | 2.04 nM | 6.03e-05 s⁻¹ | 29500 M⁻¹ s⁻¹ | 0.822 nM | 0.000148 s⁻¹ | 180000 M⁻¹ s⁻¹ | 900695 (antibody, V domains shown, Constant regions are not restated) VH: QVQLVESGGGLVKPGGSLRLSCAASGFTFSKYAMSWVRQAPGKGLEWVAEISSGGGYINYADSVTGRFTISRDNAKNSLYLQMNSLRAEDTAVYYCARAIYYYGSSYNYYAMDYWGQGTTVTVSS VL: DIQMTQSPSSLSASVGDRVTITCRASQDVGTAEAWYQQKPGKAPKLLIYWASTRHTGVPSRFSGSGSGTDFTLTISSLQPEDFATYYCQQYSSYPLTFGQGTKLEIK
3 | 0.588 µg/mL | 1.43 µg/mL | 96.3% | 0.688 µg/mL | 3.12 nM | 0.00106 s⁻¹ | 339000 M⁻¹ s⁻¹ | 1.41 nM | 0.000115 s⁻¹ | 108000 M⁻¹ s⁻¹ | 900698 (antibody, V domains shown, Constant regions are not restated) VH: QVQLVESGGGLVKPGGSLRLSCAASGFTFSKYAMSWIRQAPGKGLEWVAEISSGGGYINYADSVKGRFTISRDNAKNSLYLQMNSLRAEDTAVYYCARAIYYYGSSYNYYAMDYWGQGTTVTVSS VL: DIQMTQSPSSLSASVGDRVTITCRASQDVGTAEAWYQQKPGKAPKLLIYWASTRHTGVPSRFSGSGSGTDFTLTISSLQPEDFATYYCQQYSSYPLTFGQGTKLEIK
4 | 0.585 µg/mL | 1.97 µg/mL | 98.2% | 0.518 µg/mL | 1.29 nM | 0.000492 s⁻¹ | 380000 M⁻¹ s⁻¹ | 2.13 nM | 0.000137 s⁻¹ | 64100 M⁻¹ s⁻¹ | 900697 (antibody, V domains shown, Constant regions are not restated) VH: QVQLVESGGGLVKPGGSLRLSCAASGFTFSKYAMSWVRQAPGKGLEWVAEISSGGGYINYADSVTGRFTISRDNAKNSLYLQMNSLRAEDTAVYYCARAIYYYGSSYNYYAMDYWGQGTTVTVSS VL: DIQMTQSPSSLSASVGDRVTITCRASQDVGTAEAWYQQKPGKAPKLLIYWASTLQSGVPSRFSGSGSGTDFTLTISSLQPEDFATYYCQQYSSYPLTFGQGTKLEIK
5 | 0.751 µg/mL | – | – | 0.684 µg/mL | 4.23 nM | 0.000928 s⁻¹ | 219000 M⁻¹ s⁻¹ | 0.604 nM | 0.000214 s⁻¹ | 354000 M⁻¹ s⁻¹ | 900696 (antibody, V domains shown, Constant regions are not restated) VH: QVQLVESGGGLVKPGGSLRLSCAASGFTFSKYAMSWIRQAPGKGLEWVAEISSGGGYINYADSVKGRFTISRDNAKNSLYLQMNSLRAEDTAVYYCARAIYYYGSSYNYYAMDYWGQGTTVTVSS VL: DIQMTQSPSSLSASVGDRVTITCRASQDVGTAEAWYQQKPGKAPKLLIYWASTLQSGVPSRFSGSGSGTDFTLTISSLQPEDFATYYCQQYSSYPLTFGQGTKLEIK

Source: patent US20240026024A1 (SHANGHAI HUAOTA BIOPHARMACEUTICAL, published 2024)
